“And” between values parts separate entries of the source, which are not always exact repeats. Identical values can stand only once.
T1: human VEGF111 (human, UniProt P15692-10 27-137)
T1 sequence (looked up): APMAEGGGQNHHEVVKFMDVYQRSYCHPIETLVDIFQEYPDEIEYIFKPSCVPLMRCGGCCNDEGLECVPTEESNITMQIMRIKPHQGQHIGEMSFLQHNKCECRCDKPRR


Legend:
[1] = target: T2, recombinant human PDGF-BB (human, UniProt P01127 82-190, biotin-labelled in the binding and competition ELISAs (sites not given)); experiment: Biacore SPR, antibody captured, PDGF-BB injected
T2 construct: Bought protein (CST cat#8912BF) in the ELISAs and cell assays; purified recombinant PDGF-BB in Biacore; also called huPDGF-BB; hPDGF-BB
Protocol: (§1) For example, approximately 9000 RU of goat anti-human Fc specific polyclonal antibody (Thermo Fisher Scientific Inc., Rockford, Ill.) diluted in 10 mM sodium acetate (pH 4.5) is directly immobilized across a CM5 research grade biosensor chip using a standard amine coupling kit according to manufacturer's instructions and procedures at 25 μg/ml. Unreacted moieties on the biosensor surface were blocked with ethanolamine. For kinetic analysis, rate equations derived from the 1:1 Langmuir binding model were fitted simultaneously to multiple antigen injections (using global fit analysis) with the use of Scrubber 2 (BioLogic Software), Biacore Biaevaluation 4.0.1 software or Biacore T100 Evaluation software. Purified antibodies or DVD-Ig molecules were diluted in running buffer for capture across goat anti-human Fc reaction surfaces. Antibodies or DVD-Ig molecules to be captured as a ligand (1 μg/ml) were injected over reaction matrices at a flow rate of 10 μl/minute. During the assay, all measurements were referenced against the capture surface alone (i.e., with no captured antibody or DVD-Ig molecule). […] The equilibrium dissociation constant KD (M) of the reaction between antibodies and the target antigen was then calculated from the kinetic rate constants by the following formula: KD=Koff/Kₒₙ. Binding was recorded as a function of time and kinetic rate constants were calculated.

recombinant rat PDGF-BB [2] = target: recombinant rat PDGF-BB (rat, UniProt Q05028 74-182); experiment: cell-based or functional assay
Target sequence in this assay (Q05028 74-182 limits assumed): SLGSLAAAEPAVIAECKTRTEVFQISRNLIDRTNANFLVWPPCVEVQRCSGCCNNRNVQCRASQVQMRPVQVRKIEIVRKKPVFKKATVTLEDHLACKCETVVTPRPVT

recombinant rat PDGF-BB [3] = target: recombinant rat PDGF-BB (rat, UniProt Q05028 74-182); experiment: cell-based or functional assay; remark: listed apart in the source
Target sequence in this assay (Q05028 74-182 limits assumed): as above

[4] = target: T2, recombinant human PDGF-BB; experiment: cell-based or functional assay
Target sequence in this assay (P01127 82-190 limits assumed): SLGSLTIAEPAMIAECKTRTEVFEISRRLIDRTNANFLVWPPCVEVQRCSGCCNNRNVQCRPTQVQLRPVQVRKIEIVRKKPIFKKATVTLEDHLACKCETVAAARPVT

[5] = target: T2, recombinant human PDGF-BB; experiment: receptor competition ELISA: antibody pre-incubated with biotin-hPDGF-BB, binding to coated hPDGF-Rβ-Fc
Protocol: (§2) Plates were then washed four times with wash buffer (TBS, 0.05% Tween-20) and blocked with Superblock blocking buffer (Thermo Scientific, cat#37535). During the blocking step, supernatants, antibodies, benchmark compounds or DVD-Ig were diluted in assay diluent (10% Superblock containing 0.05% surfactamps) and an eight point titration of each sample molecule was performed. […] Following incubation, plates were washed four times with wash buffer. Detection reagent Streptavidin-polyHRP-40 (Fitzgerald, cat#65r-s104phrp) was diluted in assay diluent and added to plates (50 μL) for 45 minutes at 25° C. with shaking. Plates were washed four times with wash buffer and developed with the addition of Enhanced K-blue TMB substrate (Neogen, cat#308177). The reaction was stopped with 2N sulfuric acid (VWR, cat# BDH3500-1) and the absorbance was read at 450 nm-570 nm. […] Data was analyzed using Softmax Pro 4.8 software and IC₅₀ values calculated using a sigmoidal dose response (variable slope) fit in GraphPad Prism 5.
Target sequence in this assay (P01127 82-190 limits assumed): as above

[6] = target: T3, recombinant human PDGF-BB (human, UniProt P01127 82-190); experiment: competition ELISA: blocks biotin-hPDGF-BB binding to coated hPDGF-Rβ-Fc
T3 construct: Bought (CST cat#8912BF), biotinylated for the ELISAs; Dimer of two B chains; also called huPDGF-BB; hPDGF-BB
Protocol: as §2

[7] = target: T3, recombinant human PDGF-BB; experiment: cell-based or functional assay
Human VEGF-A 165 [8] = target: T4, Human VEGF-A 165 (human, UniProt P15692 207-395); experiment: SPR (Biacore), antibody captured by anti-human Fc, hVEGF165 as analyte
T4 construct: Recombinant human VEGF165; also called huVEGF-A165; hVEGF165
Protocol: as §1

Human VEGF-A 165 [9] = target: T4, Human VEGF-A 165; experiment: receptor competition ELISA: antibody titrated against biotinylated hVEGF165, binding to coated hVEGF-R2-Fc read
Protocol: To identify molecules that could block the binding of hVEGF₁₆₅ to the hVEGF-R2 (KDR/Flk-1) receptor, a competition ELISA was performed. […] Plates were then washed four times with wash buffer (TBS, 0.05% Tween-20) and blocked with Superblock blocking buffer (Thermo Scientific, cat#37535). […] The pre-incubated sample/hVEGF₁₆₅ complex was added to the coated plate at 50 μL in duplicate and incubated for 30 minutes at 25° C. with shaking. Following incubation, plates were washed four times with wash buffer. Streptavidin-polyHRP-40 (Fitzgerald cal#65r-s104phrp) was diluted in assay diluent (10% Superblock containing 0.05% surfactamps) and added to plates (50 μL) for 45 minutes at 25° C. with shaking. Plates were washed four times with wash buffer and developed with the addition of Enhanced K-blue TMB substrate (Neogen cat#308177). The reaction was stopped with 2N sulfuric acid (VWR, cat# BDH3500-1) and the absorbance was read at 450 nm-570 nm. A decrease in observed optical density indicates the test molecule is blocking the hVEGF₁₆₅ binding to the hVEGF-R2-Fc. Data was analyzed using Softmax Pro 4.8 software and IC₅₀ values calculated using a sigmoidal dose response (variable slope) fit in GraphPad Prism 5.

Human VEGF-A 165 [10] = target: T4, Human VEGF-A 165; experiment: cell-based or functional assay
human VEGF111 = target: T1, human VEGF111; experiment: cell-based or functional assay
rat PDGF-B (PR-1645048) = target: T5, rat PDGF-B (PR-1645048) (rat, UniProt Q05028 74-182); experiment: SPR (Biacore), antibody captured by anti-human Fc, antigen injected
T5 construct: Lot 2235300; also called rat PDGF-BB; ratPDGF-BB
Protocol: as §1, with “Unreacted” for “For example, approximately 9000 RU of goat anti-human Fc specific polyclonal antibody (Thermo Fisher Scientific Inc., Rockford, Ill.) diluted in 10 mM sodium acetate (pH 4.5) is directly immobilized across a CM5 research grade biosensor chip using a standard amine coupling kit according to manufacturer's instructions and procedures at 25 μg/ml. Unreacted”, “calculated. In this assay, on-rates as fast as 10⁶M⁻¹s⁻¹ and off-rates as slow as 10⁻⁶ s⁻¹ could be measured.” for “calculated.”

T5 sequence (Q05028 74-182 limits assumed): as the sequence (Q05028 74-182 limits assumed) above
T3 sequence (P01127 82-190 limits assumed): as the sequence (P01127 82-190 limits assumed) above

Row | Binder | Phospho-Tyr751/ratPDGF-BB Neutralization (recombinant rat PDGF-BB [2]) [nM] | Kd (Human VEGF-A 165 [8]) | kon (Human VEGF-A 165 [8]) | IC50 (Human VEGF-A 165 [9]) [nM] | huVEGF-A165 Neutralization Potency in HMVEC-d cells (Human VEGF-A 165 [10]) [nM] | Phospho-Tyr1054/huVEGF-A111 Neuterlization (human VEGF111) [nM] | also measured
1 | BFU-11A8-D6-C3 (antibody, V domains shown) VH: EVQLQQSGPELQRPGASVKLSCKASGYTFTESYIYWVKQRPEQSLELIGRIDPEDGSTDYVEKFKNKATLTADTSSNTAYMQLSSLTSEDTATYFCARFGARSYFYPMDAWGQGTSVTVSS VL: DTVLTQSPTLAVSPGERVSIPCRASESVSTLMHWYQQKPGQQPRLLIYGASNLESGVPARFSGSGSGTDFTLTIDPVEADDTATYFCQQSWNDPWTFGGGTKLELK | – | – | – | – | – | – | Kd [1]: ≤ 0.047 pM; koff [1]: ≤ 1e-06 s⁻¹; kon [1]: 2.1e+07 M⁻¹ s⁻¹
2 | BDI-7H10-D8 (antibody, IgG2b, V domains shown) VH: EVKLQQSGDELVRPGASVKMSCKASGYTFTDYAMHWVKQSPGQGLEWIGTIIPLIDTTSYNQKFKGKATLTADTSSNTAYMELSRLTSEDSAVYYCARDWDNNWGYFDYWGQGVMVTVSS VL: DVVLTQTPVSLSVTLGDQASISCRSSQSLEYSDGYTYLEWYLQKPGQSPQLLIYGVSNRFSGVPDRFIGSGSGTDFTLKISRVEPEDLGVYYCFQATHDPLTFGSGTKLEIK | > 5 | – | – | – | – | – | –
3 | chBDI-5G2 (antibody, human IgG1, V domains shown, also called chimeric BDI-5G2-F9) VH: QVTLKESGPGILQPSQTLSLTCTFSGFSLSTFGMGVGWIRQPSGKGLEWLANIWWDDDKYYNPSLKNRLTISKDTSNSQAFLEITNVDTADTATYYCARISTGISSYYVMDAWGQGASVTVSS VL: QFTLTQPKSVSGSLRSTITIPCERSSGDIGDTYVSWYQQHLGRPPINVIYGNDQRPSEVSDRFSGSIDSSSNSASLTITNLQMDDEADYFCQSYDSDIDIVFGGGTKLTVL | – | – | – | – | – | – | ratPDGF-BB Neutralization Potency (nM) in NIH-3T3 Cells (recombinant rat PDGF-BB [3]): 0.118 nM; huPDGF-BB Neutralization Potency (nM) in NIH-3T3 Cells [4]: 0.181 nM; IC50 [5]: 1.08 nM
4 | BDI-5H1-F6 (antibody, IgG2b, V domains shown, Rat hybridoma monoclonal antibody) VH: QVTLKESGPGILQPSQTLSLTCTFSGFSLSTFGMGVGWIRQPSGKGLEWLANIWWDDDKYYNPSLKNRLTISKDTSNSQAFLEITNVDTADTATYYCARISTGISSYYVMDAWGQGASVTVSS VL: QFTLTQPKSVSGSLRSTITIPCERSSGDIGDTYVSWYQQHLGRPPINVIYGNDQRPSEVSDRFSGSIDSSSNSASLTITNLQMDDEADYFCQSYDSDIDIVFGGGTKLTVL | 0.319 | – | – | – | – | – | IC50 [6]: 0.528 nM; Phospho-Tyr751/hPDGF-BB Neutralization [7]: 0.884 nM; huPDGF-BB Neutralization Potency (nM) in NIH-3T3 Cells [7]: 0.371 nM
5 | BDI-9E8-E7 (antibody, IgG2b, V domains shown, Rat hybridoma monoclonal antibody) VH: QVTLKESGPGILQPSQTLSLTCTFSGFSLSTYGMGVGWIRQPSGKGLEWLANIWWDDDKYYNPSLKNRLTISKDTSNNQAFLKITNVDTADTATYYCARIESIGTTYSFDYWGQGVMVTVSS VL: QFTLTQPKSVSGSLRSTITIPCERSSGDIGDSYVSWYQQHLGRPPINVIYADDQRPSEVSDRFSGSIDSSSNSASLTITNLQMDDEADYFCQSYDINIDIVFGGGTKLTVL | 0.333 | – | – | – | – | – | IC50 [6]: 1.12 nM; Phospho-Tyr751/hPDGF-BB Neutralization [7]: 0.629 nM; huPDGF-BB Neutralization Potency (nM) in NIH-3T3 Cells [7]: 0.195 nM
6 | CL-33675 (antibody, V domains shown, Converted to IgG; also called CL-33675-IgG; PR-1593725) VH: EVTLRESGPALVKPTQTLTLTCTFSGFSLSTYGMGVGWIRQPPGKALEWLANIWWDDDKYYNPSLKNRLTISKDTSKNQVVLTMTNMDPVDTATYYCARIESSGPKYSFDYWGQGTMVTVSS VL: EIVLTQSPGTLSLSPGERATLSCRASSGSIWYSFVSWYQQKPGQAPRLLIYADDQRASGIPDRFSGSGSGTDFTLTISRLEPEDFAVYYCQSYGINIDVVFGGGTKVEIK | – | – | – | – | – | – | Kd (rat PDGF-B (PR-1645048)): ≤ 0.58 pM; koff (rat PDGF-B (PR-1645048)): 5.8e-06 s⁻¹; kon (rat PDGF-B (PR-1645048)): ≥ 1e+07 M⁻¹ s⁻¹

Second part, led by results:

Row | Phospho-Tyr751/ratPDGF-BB Neutralization (recombinant rat PDGF-BB [2]) [nM] | Kd (Human VEGF-A 165 [8]) | kon (Human VEGF-A 165 [8]) | IC50 (Human VEGF-A 165 [9]) [nM] | huVEGF-A165 Neutralization Potency in HMVEC-d cells (Human VEGF-A 165 [10]) [nM] | Phospho-Tyr1054/huVEGF-A111 Neuterlization (human VEGF111) [nM] | Binder | also measured
7 | – | 1.9 pM and 3.8 pM | 1.7e+07 M⁻¹ s⁻¹ and 1.2e+07 M⁻¹ s⁻¹ | 0.157 | 0.195 | 0.575 | chBDB-4G8 (antibody, human IgG1, kappa, L234A L235A) heavy: not shown light: DTVLTQSPALAVSPGERVSISCRASESVSTHMHWYQQKPGQQPKLLIYGASNLESGVPARFSGSGSGTDFTLTIDPVEADDTATYFCQQSWNDPFTFGAVTKLELKRTVAAPSVFIFPPSDEQLKSGTASVVCLLNNFYPREAKVQWKVDNALQSGNSQESVTEQDSKDSTYSLSSTLTLSKADYEKHKVYACEVTHQGLSSPVTKSFNRGEC | –
8 | – | 8.8 pM | 4.9e+06 M⁻¹ s⁻¹ | 0.148 | 0.031 | 0.435 | chBEW-6C2 (antibody, human IgG1, kappa, L234A L235A, V domains shown) VH: EVQLVESGGGLVQPGSSLKLSCAASGFTFSYYGMHWIRQAPKKGLEWMALIYYDSSKMYYADSVKGRFTISRDNSKNTLYLEMNSLRSEDTAMYYCAAGGTAPVYWGQGVMVTVSS VL: NIQLTQSPSLLSASVGDRVTLSCKGSQNIANYLAWYQQKLGEAPKLLIYNTDSLQTGIPSRFSGSGSGTDYTLTISSLQPEDVATYFCYQSNNGYTFGAGTKLELRR | –
9 | – | ≤ 0.11 pM | 8.9e+06 M⁻¹ s⁻¹ | 0.097 | 0.026 | 0.26 | chBEW-9A8 (antibody, human IgG1, kappa, L234A L235A, V domains shown) VH: QIQLVQSGPELKKPGESVKISCKASGYTFTNYGMYWVKQAPGQGLQYMGWINTETGKPIYADDFKGRFVFFLETSASTAYLQINNLKNEDMATFFCARVDYDGSFWFAYWGQGTLVTVSS VL: DTVLTQSPALAVSPGERVSISCRASESVSTVIHWYQQKPGQQPKLLIHGASNLESGVPARFSGSGSGTDFTLTIDPVEADDTATYFCQQHWNDPPTFGAGTKLEMKR | –

From patent US20170015742A1 (published 2017)
